Substrate: N[C@@H](CCC(=O)N[C@H](CSc1ccc([N+](=O)[O-])cc1[N+](=O)[O-])C(=O)NCC(=O)O)C(=O)O
Assay: TP_TRANSPORTER: uptake in bile canalicular membrane vesicles from ddY mouse
Format: functional, cell membranes, Bile canalicular membrane vesicle

B1: ATP-binding cassette sub-family C member 2 (Mus musculus) (protein)
chain: MDEFCNSTFWNLSLLKSPEADLPLCFEQTVLVWIPLGFLWLLAPWQLYRIYRSRTKRFAITKFYLAKQVFVVCLLILAAIDLSLALTEDTGQATIPPVKYTNPILYLCTWLLVLVIQHCRQCCIQKNSWFLSMFWILSLLCGIFQFQTLIRALLQDSKSNMTYSCLFFVSYGFQIVILILSAFSESSDSTHAPSATASFLSSVTFSWYDSTVLKGYKHPLTIEDVWDIEENLKAKSLTSKFKTIMTKDLQKARQALQRRLKKSQQSPEGTSHGLTKKQSQSQDVLVLEDSKKKKKKSEATKDFPKSWLVKALFKTFYVVILKSFILKLAHDILLFLNPQLLKFLIGFVKDPDSYPWVGYIYAILMFSVTLIQSFFLQCYFQFCFVLGMTVRTTIIASVYKKALTLSNLARRQYTIGETVNLMSVDSQKLMDVTNYIHLLWSSVLQIALSIFFLWRELGPSILAGVGLMVLLVPVNGVLATKIRKIQVQNMKNKDKRLKIMNEILSGIKILKYFAWEPSFKEQVNSIRKKELRNLLRFSQLQTILIFILHLTPTLVSVITFSVYVLVDSQNVLNAEKAFTSITLFNILRFPLAMLPMVISSVIQASVSVDRLEQYLGSDDLDLSAIRHVCHFDKAVQFSEASFTWDRDLEATIQDVNLDIKPGQLVAVVGTVGSGKSSLISAMLGEMENVHGHITIKGSIAYVPQQAWIQNGTIKDNILFGSEYDEKKYQRVIEACALLPDLEMLPGGDMAEIGEKGINLSGGQKHRVSLARATYQDADIYILDDPLSAVDTHVGKHIFNKVVGPNGLLSGKTRILVTHGIHFLPQVDEIVVLGKGTILEKGSYSDLMDKKGVFAKNWKTFMKHSGPEGEATVDNDSEEEDGDCGLIPTVEEIPDDAASLTMRRENSLRRTLSRSSRSGSRRGKSLKSSLKIKSVNALNKKEEVVKGQKLIKKEFVETGKVKFSIYLKYLQAVGWWSLLFIVIFYVLNYVAFIGTNLWLSAWTSDSEKQNGTDNSPSQRDMRIGVFGALGIAQGIFLLSSSLWSIYACRNASKTLHRQLLTNILRAPMSFFDTTPTGRIVNRFAGDISTVDDTLPQTLRSWLLCFFGIVSTLVMICMATPIFIIIIIPLSILYVSVQVFYVATSRQLRRLDSVTKSPIYSHFSETVSGLPVIRAFEHQQRFLANSEKQIDTNQKCVFSWITSNRWLAIRLELVGNLIVFCSALLLVIYKNSLTGDTVGFVLSNALNITQTLNWLVRMTSEVETNIVAVERINEYINVDNEAPWVTDKKPPADWPKKGEIQFNNYQVRYRPELDLVLKGITCNIKSTEKVGVVGRTGAGKSSLTNCLFRILESAGGQIIIDGIDIASIGLHDLRGRLTIIPQDPILFSGNLRMNLDPFNKYSDEEIWRALELAHLKSFVAGLQLGLLHEVTEGGDNLSIGQRQLLCLGRAVLRKSKILVLDEATAAVDLETDSLIQTTIRNEFSQCTVITIAHRLHTIMDSDKIMVLDSGKIVEYGSPEELLSNMGPFYLMAKEAGIESVNHTEL
  Km: 25.5 µM

— ChEMBL document CHEMBL2074291, “Species differences in the transport activity for organic anions across the bile canalicular membrane” (J Pharmacol Exp Ther, 1999)
